Test results reported in the DeepSol protein solubility set.

Assay: soluble on expression in E. coli; label from the status in PepcDB or PDB records
In the case of “MIRHFKHKGLQLFFETGDKSGIRPDHASRLARQLRQLNDAVNPREMNIPGWKLHPLSGDLSGYWSVMVNGNWRMIFVFDGEDVILVDYRDDH”, the “soluble on expression in E. coli” value is reported as “not soluble”.
In the case of “MSLQPAPFLILDDDDVFAQTLARALTRRGFAPQIAHTGGEALSLARQTPFAYVTVDLHLAASDRGLMPHGGTDSGLHWIAPLRQALPEARMLVLTGYASIATAVQAVKLGADEYLAKPANVDSILLALQVGVSEAVAEQTMENPAPLSVARLEWEHIQRVLSEHGGNISATARALNMHRRTLQRKLGKRPVAEGHHHHHH”, the “soluble on expression in E. coli” value is reported as “soluble”.
In the case of “MSLSDFHEVRFPLDVALRGSGGPVRRTEIVTLASGQEHRNSRWADSRRRYDAGLGMRTLDALHAVLSFFEERRGRMYGFRYRDRVDYRSGPPSQAPAPIDQAIGTGDGATRVFALAKTYGGGPQAYRRTIAKPVAGSVRVAVNGVELAAGAVSCDPATGRLTFAPGAVPPPGAAITAGFEFDVPVRFDTDELSIDMAAFTAGEVPRIPLIEIVLEGHHHHHH”, the “soluble on expression in E. coli” value is reported as “soluble”.
In the case of “MFIGYKSSKSKKILIMNSKGGAGKSSLTMAMARLFSSKNIKTELIDLDPQNTSYFWGGNNKEIRTQTFLTSSRVPFSLALKLELDTELTIIDTPSNFNKFELDKYLSLADKIILPLQASPIDLHSILGFIKNLIASPVYKKRNIPVCFVITRYKGRVGDLELMHRVLNKLKYPIIGVMSESDAYQSLFIDEDVKVFQYLDKNLWVEIERWINI”, the “soluble on expression in E. coli” value is reported as “not soluble”.
With “MVMVNFVKAGCSRWRCMLAKDTCIFTTFQMVPVSLCCCSYDRCNVGGNPVYSDNPKQIQNGGGNSGNWNSGGNNNGASGGSWGNGNANNNNNNNNGGSNNNGWGNNNDWSSNYNYGGSNAANEPKMTKQTVAGDDSWNKNKWTNKQVEDMFKKSIDDRGDEIQLEDDFKKIDKNYKTQSVPQESLRTLSARKEVEKIPFVAGKSSGVGAKTTASPTTGKSKEIQL” the “soluble on expression in E. coli” value was “not soluble”.
In the case of “SLIENSHVKKDDIWPSGGQMTVKDLTAKYTEGGNAILENISFSISPGQRVGLLGRTGSGKSTLLSAFLRLLNTEGEIQIDGVSWDSITLEQWRKAFGVIPQKVFIFSGTFRKNLDPNAAHSDQEIWKVADEVGLRSVIEQFPGKLDFVLVDGGCVLSHGHKQLMCLARSVLSKAKILLLDEPSAHLDPVTYQIIRRTLKQAFADCTVILCEARIEAMLECDQFLVIEENKVRQYDSIQKLLNERSLFRQAISPSDRVKLFPHRNSSKCKSKPQIERETLVTMENVTAFWEEGGTPVLKDINFKIERGQLLAVAGSTGAGKTSLLMMIMGELEPSEGKIKHSGRISFCSQNSWIMPGTIKENIIFGVSYDEYRYRSVIKACQLEEDISKFAEKDNIVLGEGGITLSGGQRARISLARAVYKDADLYLLDSPFGYLDVLTEKEIFESCVCKLMANKTRILVTSKMEHLKKADKILILHEGSSYFYGTFSELQNLRPDFSSKLMG”, the “soluble on expression in E. coli” value is reported as “soluble”.
In the case of “MAHHHHHHMQRYLQRTVPVAPLRLSISGNSSTEGVHADAAPLLESRFLRRLRAEVDREARAEQLCKGTAARAIQQAFRRWAQTRQLQHRHLSIHGIVRPRCEFDPIRAAELDAALCSIQASLRVWASSRLVEARRLKLLQQITSSVLDPACRTTLRCAASIRHINDRQLREVLCRQEAVERRDLLRRHFVFLVCCHQAFFNDPRMWDAGMSIRRIPLYTHHGLLSAETLPVIWGTRTSSSTLNSATEDSVALRGDAVASPLPPESSSFSVTATVDGCIKGWGSPAEPGSSLLEAVGSDWLVGKEEDGGGFDIDAALRLGEYRLLFSPEEWRLLKKLKASSPHPASPLLSSGADGRRAARDAAGLPEAEAGALAAPRGQLQMAPTEAAAKSACSLSYAKAFASALTFLRQPRMVDPSVRCTVQRLNDIRSSTLEMQQELRVHGYLFAAQVAPLLILGFHYQGLARGDADLSCFTTTSAMKTCRPLVAGRVACAATELRRCLIGAVHYSGGAAESVLPVALEEHKCSGKAAARTLSQRLPPAGVSRSMLLPPRAAPTAGLMRDGFANPGTEALYHAPAKTTRRAGGADPRCGSSHTASRHGSAIRVALAAEWSRRLASSADEVGPYWCEFLSSTGLDGLVTAAGRRGETPGEADAAYQTRASLPSPPLPTRVRRGLESHLVHGGSSYLLQDFMPSLMRRRAHSRAGPQPLDAATGSVVVAVACAGASPSTSVSTSTCGMVHAGEWWDAVERLLLREYTNRRELLTNEAVQRSSIDILRCTAHPSADESVAGV”, the “soluble on expression in E. coli” value is reported as “not soluble”.
In the case of “SVEDELALFDKSINEFWNKFKSTDTSCQMAGLRDTYKDSIKAFAEKLSVKLKEEERMVEMFLEYQNQISRQNKLIQEKKDNLLKLIAEVKGKKQELEVLTANIQDLKEEYSRKKETISTANKANAERLKRLQKSADLYKDRLGLEIRKIYGEKLQFIFTNIDPKNPESPFMFSLHLNEARDYEVSDSAPHLEGLAEFQENVRKTNNFSAFLANVRKAFTATVYN”, the “soluble on expression in E. coli” value is reported as “soluble”.
In the case of “MGSDKIHHHHHHMLRLITDFDGPIIDVSERYYRVYQFCLEKTRRPDQVVQELPKAEFWQLKRSRVPEKQIAFNSGLDEAQAQEFAQLRRQTVHTEAYFNYDTLAPGAVDALLKIQEAGIDLAVMTMRRVRELDYAFKKYDLGRFFPENRCYCLSNDYVKTRDIEDKPLLMARALKELPPAADTWMVGDTEADITAAKNYDIKVMAVESGIRDRTQLELYHPDLIVKDFSTAVDLVLKPKHLV”, the “soluble on expression in E. coli” value is reported as “not soluble”.
With “KIQEWLGESDYSDFLSVVEAVHDSGPSFVLQAMKSLDKYDAMMCISVDSMVNRIQELIDDTMVMSTNNPWGVIPSEGGAGLIFCRRNTVETLKLKPLAQLGYIDTELNTSDRRGMYRLVQRASKKLTAFGEVYSDMTNLRAHSEDYGFALGAKAERFINPEQPLLINE” the “soluble on expression in E. coli” value was “not soluble”.
For “MTSSPPSFMSYEDRIQEGDTVIVYVTYGQMVPTIVKRGQTLMMKYGALRHEFIIGKRWGQRLSATAGYVYILRPTSDLWTRALPRRTQILYTADCAQILSLLDAKPGSVICESGTGSGSLSHAIALTVAPTGHLYTHDIDETRTHKVLEEFKVHGLGSVTTAVVRNVCTSGFHVENAADGVFLDVPAPWEAIPFAAKSIFRARGGRLVSFSPCLEQVQRACLAMAAAGFVSIETIELVPEQKKIVSQHRQTLEEFEELGDAYPKERKRNVDGTIVEQSSSAIPRITIAIVYPYSQPTHTGYLTHATMLPVAE”, the “soluble on expression in E. coli” value was “not soluble”.
With “MLASMTGYAAVSREIPQGSLALELRSVNNRYLDLQFRLPDELRALESEMRDFLGSGLTRGKVDCRLTFSSYSNSYRQQRLNRDLLQDLQIMSDEIKSIFPAAGDFSVAEILRWPGVLDSDHISIDDLRTPCMALLQTALQELVSARKREGEKLHNLLLERVQRMRQLVLDLLPGLPAILASFQERLLNSLKAAGLDEKDERIRQEFTLFANRVDVDEELSRLQGHLNEFEHILLAGGVVGKRLDFLTQELNREANTLASKSVAREVTRIAVEMKVLIEQLREQIQNIE” the “soluble on expression in E. coli” value was “not soluble”.
For “MLKELSILTGGDGVGFQSAPEQQSLQPAELKPVNVSINSIDELMLFFESLNYTPENFHGGNKSVPRITFDAVGEGWRSVSDQLPVKQKKMVFFRLMTPLVLLANEKVLQERQQVMSAPLDDAELIALAVKYKVISNPTQPLLASHRQALLERVDILPPSLVLAQAAKESGWGTSRFTLEGNALFGQWDFNGNGMEPKQKRQGMGRYGLARFETPLASVEGYLLNLNTHSAYYKMRQLRAQSRHANQMITGTALAGTLDRYSERGHAYVEMIRKMIRTNKLYLADEAYLNDDMPLHLLTRTN”, the “soluble on expression in E. coli” value was “soluble”.
For “MSLGSNKTIIINLNNLEHNLNLIKNKIGEKEIVATLKGDAYGHGLINIFKFLKSKNINYFGLSNIEDAKTLKKIDKNIKILMYIKVDKKEIKNLIKFELVPFVSDFEYLFLIEKECALQKNKIKVHLKIDIGMNRYGIKIDDALEIATYIQNSKFLELEGICSHLPSIENFKTTQKQIEQFLFFLETLKQKNIHPKFVHISNSGHIINYKLNPQFNMVRPGLILYGYCQSEGHHHHHH”, the “soluble on expression in E. coli” value was “not soluble”.
With “MGSDKIHHHHHHMKSIIHSTENNNFYLYDTQRILSMLIHPELKKIHEKSTDINIDAYYLKKYSYLVNHGFFGEAKPFEFKANISENSIKENITQTKVIVFEITDYCNLKCKYCSLGDLYNFSKKESKNINIKYALNFLRYIFNVKHKKTKLTISFFGGEPLVNFPAIQQIIEEAKLLNKNKKLDLMFNMTTNATLIHKYIDFIVENNIELLISFDGNEKAHSYRTYASNNKNSFHDVLMNTDMIKLKHPSYFDKYVNFNAVLNNRNSIKGIYEFIYNRYGKIPRISQLSSDHINLNKKNIFDDIFHSRKISEKEFQKEGSDVLPIVSNRLIPFNESKKFLKHYSLNLYLSNTLYLLYDLIDSFPTGTCLPFQTRIFLNTHNNLLPCEKVSYKNFLGKVNDHVFINIPEIVQRYNSYYVHCKKVCQYCYGGRACSTCLLSLDNLDQLGVEEFVCPDFQNQKTFEDKLNRIFSYLEKCPSEFFQIINHLITE” the “soluble on expression in E. coli” value was “not soluble”.
In the case of “QADTAMIVQISADRKEINLVSIPRDSLVDVPQCETSKGTIPAQYNVMFNSIFAGAYKTGGDLSSAASCTLNAVNSLTGLNIQNFIVVDFAGLVKMIDSVGGVDLCIPQNVNDPYTGLNLDKGMHHLDGVAATQYARIRHGIGDGSDTSRTTRQQYLIKQLMSEALS”, the “soluble on expression in E. coli” value is reported as “not soluble”.
With “MSLKKIEKIIEKEIHKNKLLQALMKKNQKTDKKTVFELVKQFNQKLNLTTILKTIRTKRSTYYYWLKAENKIKAKKEKYLLQQNRIKALCLHQQYFYGHRKITDLYQKTFNEFITKKKVYTIMKKNDINCRLRIKKNKYNYKNNLKTKLKVVDNLINQDFISIAPLQKLFTDITYFKIPQGFLYFSCIIDSFNNQIIASHTSKHQNKELVLNTIQKLPLLKEPCIIHSDQGTVYQSQKVQQTLTKKGFLISMSRKATPRDNAVIENFFGQMKTILQHQHPFLFQKSTKKLKKIINHFPKFWNNQWILAKLNYSSPSQYSQNLIEGHHHHHH” the “soluble on expression in E. coli” value was “not soluble”.
For “SLQLKSEKARIILSGEPTLLIDKGKIDISALKSQRLNINDLMEELRLKNYFNVEDIEYAILETSGQISLIPKTHLTNATKEDLNLKVKQENVPITIILDGKVNTDNIKYLNKDADWLMKELKKNKIDSPKDVFLALIDSKGKFYYQKYNN”, the “soluble on expression in E. coli” value was “soluble”.
For “GSMPAIMTMLADHAARQLLDFSQKLDINLLDNVVNCLYHGEGAQQRMAQEVLTHLKEHPDAWTRVDTILEFSQNMNTKYYGLQILENVIKTRWKILPRNQCEGIKKYVVGLIIKTSSDPTCVEKEKVYIGKLNMILVQILKQEWPKHWPTFISDIVGASRTSESLCQNNMVILKLLSEEVFDFSSGQITQVKAKHLKDSMCNEFSQIFQLCQFVMENSQNAPLVHATLETLLRFLNWIPLGYIFETKLISTLIYKFLNVPMFRNVSLKCLTEIAGVSVSQYEEQFETLFTLTMMQLKQMLPLNTNIRLAYSNGKDDEQNFIQNLSLFLCTFLKEHGQLLEKRLNLREALMEALHYMLLVSEVEETEIFKICLEYWNHLAAELYRESPFSTSASPLLSGSQHFDIPPRRQLYLTVLSKVRLLMVSRMAKPEEVLVVENDQGEVVREFMKDTDSINLYKNMRETLVYLTHLDYVDTEIIMTKKLQNQVNGTEWSWKNLNTLCWAIGSISGAMHEEDEKRFLVTVIKDLLGLCEQKRGKDNKAIIASNIMYIVGQYPRFLRAHWKFLKTVVNKLFEFMHETHDGVQDMACDTFIKIAQKCRRHFVQVQVGEVMPFIDEILNNINTIICDLQPQQVHTFYEAVGYMIGAQTDQTVQEHLIEKYMLLPNQVWDSIIQQATKNVDILKDPETVKQLGSILKTNVRACKAVGHPFVIQLGRIYLDMLNVYKCLSENISAAIQANGEMVTKQPLIRSMRTVKRETLKLISGWVSRSNDPQMVAENFVPPLLDAVLIDYQRNVPAAREPEVLSTMAIIVNKLGGHITAEIPQIFDAVFECTLNMINKDFEEYPEHRTNFFLLLQAVNSHCFPAFLAIPPAQFKLVLDSIIWAFKHTMRNVADTGLQILFTLLQNVAQEEAAAQSFYQTYFCDILQHIFSVVTDTSHTAGLTMHASILAYMFNLVEEGKISTPLNPGNPVNNQMFIQDYVANLLKSAFPHLQDAQVKLFVTGLFSLNQDIPAFKEHLRDFLVQIKEFAGEDTSDLFLEERETALRQAQEEKHKLQMSVPGILNPHEIPEEMCD”, the “soluble on expression in E. coli” value was “soluble”.
